# Experimental data from the DeepSol protein solubility set.
# Test: soluble on expression in E. coli; label from the status in PepcDB or PDB records
row,Sequence,soluble on expression in E. coli
1,MVPDRREQSKAKERLLEREEALAKHMSEREKRPPPKIDPPPSPKAPEPSKRVLKEKQAPLFVDTAVEGTLPPLSLLDPAEVKQKSYSPESLEAMSRLLEIKLKEFGVEVSVDSVHPGPVITRFEIQPAAGVKVSRISNLAKDLARSLAVISVRVVEVIPGKTTVGIEIPNEDRQMVRFSEVLSSPEYDEHKSTVPLALGHDIGGRPIITDLAKMPHLLVAGTTGSGKSVGVNAMLLSILFKSTPSEARLIMIDPKMLELSIYEGIPHLLCPVVTDMKEAANALRWSVAEMERRYRLMAAMGVRNLAGFNRKVKDAEEAGTPLTDPLFRRESPDDEPPQLSTLPTIVVVVDEFADMMMIVGKKVEELIARIAQKARAAGIHLILATQRPSVDVITGLIKANIPTRIAFQVSSKIDSRTILDQGGAEQLLGHGDMLYLPPGTGLPIRVHGAFVSDDEVHRVVEAWKLRGAPDYIEDILAGVDEGGGGGGSFDGGDGSGEGSEDDPLYDEAVRFVTESRRASISAVQRKLKIGYNRAARMIEAMEMAGVVTPMNTNGSREVIAPAPVRDKLHHHHHH,soluble
2,GGGSGGSKKDEHKQQGELYMWDSIDQKWTRHYCAIADAKLSFSDDIEQTMEEDNPLGSLCRGILDLNTYNVVKAPQGKNQKSFVFILEPKQQGDPPVEFATDRVEELFEWFQSIREITWKIDTK,soluble
3,NIQGRTARQTDYLFQIKKHDITFGIGPAGTGKTYLAVACAVDALERELVSRVILVRPAVEAGERLGFLPGDMVQKVDPYLRPLYDALYDLMGFEKVSKHFERGIIEIAPLAFMRGRTLNQSFIILDEAQNTTAEQMKMFLTRIGFGSKAVITGDITQIDLPKHQKSGLVEAERVLKNVNGIAFTRFRTEDVVRHPLVQRIVDAYEKYAPDK,not soluble
4,MSSIKIECVLPENCRCGESPVWEEVSNSLLFVDIPAKKVCRWDSFTKQVQRVTMDAPVSSVALRQSGGYVATIGTKFCALNWKEQSAVVLATVDNDKKNNRFNDGKVDPAGRYFAGTMAEETAPAVLERHQGALYSLFPDHHVKKYFDQVDISNGLDWSLDHKIFYYIDSLSYSVDAFDYDLQTGQISNRRSVYKLEKEEQIPDGMCIDAEGKLWVACYNGGRVIRLDPVTGKRLQTVKLPVDKTTSCCFGGKNYSEMYVTCARDGMDPEGLLRQPEAGGIFKITGLGVKGIAPYSYAG,soluble
5,MQYEKVKPPENGEKIRYENGKLIVPDNPIIPYFEGDGIGKDVVPAAIRVLDAAADKIGKEVVWFQVYAGEDAYKLYGNYLPDDTLNAIKEFRVALKGPLTTPVGGGYRSLNVTIRQVLDLYANVRPVYYLKGVPSPIKHPEKVNFVIFRENTEDVYAGIEWPRGSEEALKLIRFLKNEFGVTIREDSGIGIKPISEFATKRLVRMAIRYAIENNRKSVTLVHKGNIMKYTEGAFRDWGYEVAKQEFGEYCITEDELWDKYGGKQPEGKIVVKDRIADNMFQQILTRTDEYDVIALPNLNGDYLSDAAAALIGGLGIAPGSNIGDGIGVFEPVHGSAPKYAGQNKVNPTAEILTGALMFEYIGWKDASEMIKKAVEMTISSGIVTYDIHRHMGGTKVGTREFAEAVVENLQSL,soluble
6,MAEKNHQQQERLPGNPFFPSRSNAGSSFDMPETPHLIDSLTSQIDEFTIQSIIDTQRQSLKRFEKTNEMLMNCAQLGDRRIEKAKRDSVGHKETILQMKTDLEFIFKKIRMFKTVLSSKYPEVYAEVSAELTPKRSEEDE,not soluble
7,MEGDVLSGFGDRHNMDGKLLQSFQKSFVDVQDILDQNRLLINEINQNHESKQPDNLGRNVGLIKELNNNIRRVASLYGDLSHSFARSVDASSEGESSGTLKSDGKANQKRFRSGDGSLVPATDEEMLEVKNLLEKNEQDMPVLPDPIQTEEYIPDEGSPSQFLQLENFEGKTYCIHAKTDRISLGLHDKGIYWVTCNVGAINFTPPLKLLQSKEELMNGSQMLFVLPDTKFQISTELSGNVELVPSKVLLQEPILFSSNGCSINQSTDVLNATASPKEPALSTAASKPDFSRVPGEISLANLSIKELQETFRATFGRETTSKDKRWLKRRIKMGLINSCVVPTTTLTINDSKLIGGDQDAIDAFSKGTVDEETATESIDTPASPDGIKGHSNDFGHSPVETFVDHYSGNEDFEGEDGSAKRVRKPTRRYIEETNEKQQIDGSMIPSKDPSSIQAVSSEGRVVVTRMVSLAGSRIQVPYVSHVRRSRPRENIMALGEFRSKSWEVKAAPEEGNLNLSPPQLSNDVNRVPGVKSASRCVQKESDKDHLKPIFTDVDQEMMEPELLDSSGDSSDDNFVDAPITQSASGRKLHRAWTISEVEKLVEGVSKYGVGKWTEIKKLSFSPYTHRTTVDLKDKWRNLQKASSSNRMEGGLKKHGSMAIPTHIMLQVRELAQKQSPISRVVSKARVVKRSRSRNGFL,soluble
8,MIRLSNENTIFFMDKENVPIASCQSGDTVIFETKDCFSDQITNEEQALTSIDFNRVNPATGPLYVEGARRGDMLEIEILDIKVGKQGVMTAAPGLGALGESLNSPTTKLFPIEGDDVVYSTGLRLPLQPMIGVIGTAPPGEPINNGTPGPHGGNLDTKDIKPGTTVYLPVEVDGALLALGDLHAAMGDGEILICGVEIAGTVTLKVNVKKERMFPLPALKTDTHFMTIASAETLDAAAVQATKNMATFLANRTALSIEEAGMLLSGAGDLYVSQIVNPLKTARFSLALHYFEKLGVDLCNLEHHHHHH,soluble
9,MLLPEPTTLRHVLIDGTIPQVATDEALIKDFGHPYEYAFNRTPQGYQVRWNTPKGVYILDAVVAAHIDPDDQWYWHQQFAFAIPELAEGPHHSSEELLTAARTLNGNGPAYLVPTEDGHTDVIVATPSFPQLPLAHALTLGLGQARNNNLTDDEIRRAIIAFAAQNDYSVAEDGLILCVRSDNGEQAHVDIARLKVRDLQSTTPQLRLTDVLADATFVAAEHQLLLNGRFPDARATTNDDCSVVTLTTPTGQTLRARALLIATLRGETLQWSWADPAVCDLPGAKAALGVKNFAIDNGLGMLLGQVDAATALSQRLYDAAKPVSRFWTDVRVPLSDGSTAIMLVDASELRLPPPSHAAVFATLHETVPHGRDIRRALSYYGAFRRITIDDVDYRRVRVHAPSAPIQVSMDACGRVCSIV,not soluble
10,GPGSMSSSPNPMGAGTASATPKSTGGPEASPGSVRRSTLYAVLNVSHTATLEEITAAYRKLALVYHPDRPNGLQWKFQEIQRAYEVLSQKDARAKYDILLRGKLAVKNFKRPPPLESVLQPVYALLADGAFYEFEAASSKLKCSFHYGDGIQFNGDCGSFIGLAGDGFIYWTISGRGFASRLCKAGSTFALSSVRVMYRSNMGLAKMPLKRSSLHSSHTCRPAGSSGDKRAVRGSTGDAGCSERAKSTTGARAAKMSEADRIKKALLNKERSRNLKRRMETLKEEEIEARNSLQQDLWGQFSSLHTTAEVAFRCTLQGVAVPVEMALWMGYKSPEEVMLRSSGACSSLFIAEQVSLQTSSLWVDPLQSDYFNDDEMLREGCDGNKEDRKHCTSNGRDVTARHKPDSADSSPCSSQSSPASDGAPDGDACRGRSATASGTHSPILHRLNNGATAVTGASDGAEVAKKE,not soluble
11,MGSDKIHHHHHHMSLLSVEHLSHGFADKELYEDANFELNKEDHMGIVGQNGAGKSTLIKILTGETLPDKGRIIWQNKVTYGYLDQYADIPKEDTLYEFLTTAYAELFRQRDLMEKYYADYAENLDDKLLEKAGRIQENLDANNFYDIDTEINRVMTGLGLDDIGKDHIVSEMSGGQRSKIILAKLLLQNPDVLILDEPTNYLDTAHISWLADYLNGFEGAFMVISHDYDFLQKVTNCICDVSFNKITKYRGDFQSAMRQKDARKEAQLKAFEKQQVVIEKAENFIRKNKAGQRSTMAKSREKMLNRMEKIDPPSENLKGHFDFPYLDTGSQNAVAVNKLAVGYGKKQLLEPVTFSMSAGEKVAFSGFNGAGKSTLIKSILGVIPALGGEAHFSPSAKVNYFTQELIWDNPKLTPLETIQNQYPKMLPKTIRTKLAKCGINAADTMKPMKQLSGGEQTKVKLALMELIDSNFLIMDEPTNHLDDETKRALSEALQRFKGNLIVVSHEDSFYSQWIDKEINVEKLRLDRE,not soluble
12,MSRLLLVWDAPNLDMGLGALLGGRPTTAHRPRFDAVGRWLLAKAGELAHTTGSKVESEATVFANVVPGSADSIRSWVEALRNVGFAVFAKPKLRDDTDVDPDMLAHIRKRFEEGDLAGVIVASADGRNFQETLDELASAGVAITVIGFHEHATWALADDRITFVDLEEIPGVFREPLPRVSLDNLPEEGAWLKPIRPLSALLSKSK,not soluble
13,MESNFIDWHPADIIAGLRKKGTSMAAESRRNGLSSSTLANALSRPWPKGEMIIAKALGTDPWVIWPSRYHDPQTHEFIDRTQLMRSYTKPKK,soluble
14,MSYQPPPNGQMPGYPQQQFNQQPQFQSNGFPPPAAPQKPAQVPGGFPPPHQQPNGQYQNGGLNGNSSHLAQSVNNMSIGARSTPSAQPPNPYQPAGYPGAPPQQLQQVQRQQTPQQFAAVPQSVQAPSATPAGPLQAMQQAPAPTPGIPQMNQGAHLPPQPHQIHQPTPLRPQIPGFPQAGGSPSSFQAGAPTSQNVQGYPGGPSSAPSAYPGAPQVPQAPNSFIPPGTGGFPPGQPTAGSFPPGPQVPGSYPSGPADIPQGPGMPRAFPPGASAPVAPGMPGAFPPGQGGPGMPGSFPPGAPGPGGPGMPGSFAPGAPGPGGPGGYPSGGPGMPGMQGGYPGGPPQQRQQRLDPNMMPSAVQVIDDDSSTRSGIFPTGYPNAELPPLVSTNSFAQDQGNCNPKFMRSTLYTAPQTNDILKASQIPLAVVISPFASLTEYEKEPPVVDLGPQGPIRCQRCKAYICPFMEFQDGGRSFRCPFCHARTSVEDAYFAHLDHTGRRTDIEMRPELCLGAYDLVATKQYCKNGIAPKEPAFIFMIDVSYNAISNGMLPILCQNLEKVLRNLPRESGQLESSMRIGLATFDQAVHFFDISSASPKMLVMSDVQEPFVPMVDGLLLPYNEALPGLRAALAEIPKLFSQSKTTETILQPVVQAGLDALKCADRAGKVILFSTVLPTYDAPGKLKSKNDRSLLGTDKEKNALVPQEDSYTKLGEQCVKSGVTVDLFLFPNAFIDVATIGQLSAVTGGSIFKFQYFSADKDGVRMLNELERHVSKKIAFDCMARVRTSTGIRPITFTGSFYMENSTDLELATLDESKAFITEIKHDDSLKDPASFIQTAVLYTSMTGQRRLRILNLCLPVTADYNQVYRLADPEALTAFMLKQAVQLNRDKGSSEMRESLSSRCAQFLATYREKCSEGAPLGQLILPESLKLMPLYVNSILKNDAISGGSEMTVDDKVWQMELIRGLRTENVMPLIYPRVMPISDLQINDTEEMKDLPKPVRASSEFLENSKAYIIDNGVILFVWVGSACPQTWVQDVFGVGATNQIDTESGTIPEKDNGHSRALRRAIQLLPRGIRERKTFVVVEKSGLEPWMKKFLVEDKAGPANMSYVDYLVDIHRKIRDLIS,not soluble
15,GMLHYTKEDLLELGAEITTREIYQQPDVWREAFEFYQAKREEIAAFLQEIADKHDYIKVILTGAGTSAYVGDTLLPYFKEVYDERKWNFNAIATTDIVANPATYLKKDVATVLVSFARSGNSPESLATVDLAKSLVDELYQVTITCAADGKLALQAHGDDRNLLLLQPAVSNDAGFAMTSSFTSMMLTTLLVFDPTEFAVKSERFEVVSSLARKVLDKAEDVKELVDLDFNRVIYLGAGPFFGLAHEAQLKILELTAGQVATMYESPVGFRHGPKSLINDNTVVLVFGTTTDYTRKYDLDLVREVAGDQIARRVVLLSDQAFGLENVKEVALGCGGVLNDIYRVFPYIVYAQLFALLTSLKVENKPDTPSPTGTVNRVVQGVIIHEYQK,soluble
16,MVQELLKQLQNGEAKFADVLAYIESRFEHQPTAFKNGQQQNAATENQGSAKVFSLAQIEGLNQTETLSLFAEHYAAVLNTPEGTDHQNIRQFMQHGWDGVTFEGEALQAK,not soluble
